{"source": "the supplement of paper PMC11246515", "assay": "total protein half-life in vivo (active degradation + dilution); higher = more stable protein", "key": {"[1]": {"settings": "E. coli NCM3722 delta-clpP delta-lon delta-hslV, growth: N-lim chemostat, doubling time 6 h"}, "[2]": {"settings": "E. coli NCM3722 delta-clpP, growth: N-lim chemostat, doubling time 6 h"}, "[3]": {"settings": "E. coli NCM3722 delta-hslV, growth: N-lim chemostat, doubling time 6 h"}, "[4]": {"settings": "E. coli NCM3722 delta-smpB, growth: N-lim chemostat, doubling time 6 h"}, "[5]": {"settings": "wild type E. coli NCM3722, growth: C-lim chemostat, doubling time 3 h"}, "[6]": {"settings": "wild type E. coli NCM3722, growth: C-lim chemostat, doubling time 6 h"}, "[7]": {"settings": "wild type E. coli NCM3722, growth: C-lim chemostat, doubling time 12 h"}, "[8]": {"settings": "wild type E. coli NCM3722, growth: N-lim chemostat, doubling time 6 h"}, "[9]": {"settings": "wild type E. coli NCM3722, growth: N-lim chemostat, doubling time 12 h"}, "[10]": {"settings": "wild type E. coli NCM3722, growth: P-lim chemostat, doubling time 6 h"}, "[11]": {"settings": "wild type E. coli NCM3722, growth: P-lim chemostat, doubling time 12 h"}, "[12]": {"settings": "E. coli NCM3722 delta-lon, growth: N-lim chemostat, doubling time 6 h"}}, "note": "± gives the standard deviation of the averaged measurements."}
{"sequence": "MIVRILLLFIALFTFGVQAQAIKESYAFAVLGEPRYAFNFNHFDYVNPAAPKGGQITLSALGTFDNFNRYALRGNPGARTEQLYDTLFTTSDDEPGSYYPLIAESARYADDYSWVEVAINPRARFHDGSPITARDVEFTFQKFMTEGVPQFRLVYKGTTVKAIAPLTVRIELAKPGKEDMLSLFSLPVFPEKYWKDHKLSDPLATPPLASGPYRVTSWKMGQNIVYSRVKDYWAANLPVNRGRWNFDTIRYDYYLDDNVAFEAFKAGAFDLRMENDAKNWATRYTGKNFDKKYIIKDEQKNESAQDTRWLAFNIQRPVFSDRRVREAITLAFDFEWMNKALFYNAWSRTNSYFQNTEYAARNYPDAAELVLLAPMKKDLPSEVFTQIYQPPVSKGDGYDRDNLLKADKLLNEAGWVLKGQQRVNATTGQPLSFELLLPASSNSQWVLPFQHSLQRLGINMDIRKVDNSQITNRMRSRDYDMMPRVWRAMPWPSSDLQISWSSEYINSTYNAPGVQSPVIDSLINQIIAAQGNKEKLLPLGRALDRVLTWNYYMLPMWYMAEDRLAWWDKFSQPAVRPIYSLGIDTWWYDVNKAAKLPSASKQGE", "values": [{"measurement": "total protein half-life in vivo", "setting": "[1]", "result": "6.04 ± 0.17", "unit": "h"}, {"measurement": "total protein half-life in vivo", "setting": "[2]", "result": "6.38 ± 1.6", "unit": "h"}, {"measurement": "total protein half-life in vivo", "setting": "[3]", "result": "5.79 ± 0.79", "unit": "h"}, {"measurement": "total protein half-life in vivo", "setting": "[4]", "result": "5.92 ± 0.24", "unit": "h"}, {"measurement": "total protein half-life in vivo", "setting": "[5]", "result": "3.0824 ± 5.7e-05", "unit": "h"}, {"measurement": "total protein half-life in vivo", "setting": "[6]", "result": "6.076 ± 0.038", "unit": "h"}, {"measurement": "total protein half-life in vivo", "setting": "[7]", "result": "13.3 ± 2.8", "unit": "h"}, {"measurement": "total protein half-life in vivo", "setting": "[8]", "result": "6.19 ± 0.39", "unit": "h"}, {"measurement": "total protein half-life in vivo", "setting": "[9]", "result": "12.8 ± 0.89", "unit": "h"}, {"measurement": "total protein half-life in vivo", "setting": "[10]", "result": "6.46 ± 0.14", "unit": "h"}, {"measurement": "total protein half-life in vivo", "setting": "[11]", "result": "12 ± 1.5", "unit": "h"}]}
{"sequence": "MIVRPQQHWLRRIFVWHGSVLSKISSRLLLNFLFSIAVIFMLPWYTHLGIKFTLAPFSILGVAIAIFLGFRNNAGYARYVEARKLWGQLMIASRSLLREVKTTLPDSASVREFARLQIAFAHCLRMTLRKQPQAEVLAHYLKTEDLQRVLASNSPANRILLIMGEWLAVQRRNGQLSDILFISLNDRLNDISAVLAGCERIAYTPIPFAYTLILHRTVYLFCIMLPFALVVDLHYMTPFISVLISYTFISLDCLAEELEDPFGTENNDLPLDAICNAIEIDLLQMNDEAEIPAKILPDRHYQLT", "values": [{"measurement": "total protein half-life in vivo", "setting": "[1]", "result": 6.05, "unit": "h"}, {"measurement": "total protein half-life in vivo", "setting": "[2]", "result": 5.43, "unit": "h"}, {"measurement": "total protein half-life in vivo", "setting": "[3]", "result": 5.52, "unit": "h"}, {"measurement": "total protein half-life in vivo", "setting": "[8]", "result": 3.6, "unit": "h"}, {"measurement": "total protein half-life in vivo", "setting": "[9]", "result": 8.65, "unit": "h"}, {"measurement": "total protein half-life in vivo", "setting": "[10]", "result": "5.86 ± 0.6", "unit": "h"}, {"measurement": "total protein half-life in vivo", "setting": "[11]", "result": "11.5 ± 0.23", "unit": "h"}]}
{"sequence": "MIWKRHLTLDELNATSDNTMVAHLGIVYTRLGDDVLEAEMPVDTRTHQPFGLLHGGASAALAETLGSMAGFMMTRDGQCVVGTELNATHHRPVSEGKVRGVCQPLHLGRQNQSWEIVVFDEQGRRCCTCRLGTAVLG [P0A8Y8]", "values": [{"measurement": "total protein half-life in vivo", "setting": "[1]", "result": 6.69, "unit": "h"}]}
{"sequence": "MIWKRKITLEALNAMGEGNMVGFLDIRFEHIGDDTLEATMPVDSRTKQPFGLLHGGASVVLAESIGSVAGYLCTEGEQKVVGLEINANHVRSAREGRVRGVCKPLHLGSRHQVWQIEIFDEKGRLCCSSRLTTAIL", "values": [{"measurement": "total protein half-life in vivo", "setting": "[1]", "result": 4.78, "unit": "h"}, {"measurement": "total protein half-life in vivo", "setting": "[2]", "result": 3.39, "unit": "h"}, {"measurement": "total protein half-life in vivo", "setting": "[3]", "result": 4.22, "unit": "h"}, {"measurement": "total protein half-life in vivo", "setting": "[12]", "result": 4.14, "unit": "h"}, {"measurement": "total protein half-life in vivo", "setting": "[4]", "result": "3.73 ± 0.23", "unit": "h"}, {"measurement": "total protein half-life in vivo", "setting": "[5]", "result": "2.75 ± 0.11", "unit": "h"}, {"measurement": "total protein half-life in vivo", "setting": "[8]", "result": 4.23, "unit": "h"}, {"measurement": "total protein half-life in vivo", "setting": "[9]", "result": "9.08 ± 3.8", "unit": "h"}, {"measurement": "total protein half-life in vivo", "setting": "[10]", "result": 6.54, "unit": "h"}, {"measurement": "total protein half-life in vivo", "setting": "[11]", "result": 10.7, "unit": "h"}]}
{"sequence": "MIYLRKANERGHANHGWLDSWHTFSFANYYDPNFMGFSALRVINDDVIEAGQGFGTHPHKDMEILTYVLEGTVEHQDSMGNKEQVPAGEFQIMSAGTGIRHSEYNPSSTERLHLYQIWIMPEENGITPRYEQRRFDAVQGKQLVLSPDARDGSLKVHQDMELYRWALLKDEQSVHQIAAERRVWIQVVKGNVTINGVKASTSDGLAIWDEQAISIHADSDSEVLLFDLPPV", "values": [{"measurement": "total protein half-life in vivo", "setting": "[2]", "result": "4.3 ± 0.072", "unit": "h"}, {"measurement": "total protein half-life in vivo", "setting": "[3]", "result": "4.52 ± 0.68", "unit": "h"}, {"measurement": "total protein half-life in vivo", "setting": "[12]", "result": "4.67 ± 0.054", "unit": "h"}, {"measurement": "total protein half-life in vivo", "setting": "[4]", "result": "4.36 ± 0.26", "unit": "h"}, {"measurement": "total protein half-life in vivo", "setting": "[5]", "result": "2.84 ± 0.096", "unit": "h"}, {"measurement": "total protein half-life in vivo", "setting": "[6]", "result": "5.31 ± 0.29", "unit": "h"}, {"measurement": "total protein half-life in vivo", "setting": "[7]", "result": "8.6 ± 2.5", "unit": "h"}, {"measurement": "total protein half-life in vivo", "setting": "[8]", "result": "4.51 ± 0.2", "unit": "h"}, {"measurement": "total protein half-life in vivo", "setting": "[9]", "result": "7.3 ± 0.36", "unit": "h"}, {"measurement": "total protein half-life in vivo", "setting": "[10]", "result": "5.54 ± 0.17", "unit": "h"}, {"measurement": "total protein half-life in vivo", "setting": "[11]", "result": "11.6 ± 0.069", "unit": "h"}]}
{"sequence": "MKAAAKTQKPKRQEEHANFISWRFALLCGCILLALAFLLGRVAWLQVISPDMLVKEGDMRSLRVQQVSTSRGMITDRSGRPLAVSVPVKAIWADPKEVHDAGGISVGDRWKALANALNIPLDQLSARINANPKGRFIYLARQVNPDMADYIKKLKLPGIHLREESRRYYPSGEVTAHLIGFTNVDSQGIEGVEKSFDKWLTGQPGERIVRKDRYGRVIEDISSTDSQAAHNLALSIDERLQALVYRELNNAVAFNKAESGSAVLVDVNTGEVLAMANSPSYNPNNLSGTPKEAMRNRTITDVFEPGSTVKPMVVMTALQRGVVRENSVLNTIPYRINGHEIKDVARYSELTLTGVLQKSSNVGVSKLALAMPSSALVDTYSRFGLGKATNLGLVGERSGLYPQKQRWSDIERATFSFGYGLMVTPLQLARVYATIGSYGIYRPLSITKVDPPVPGERVFPESIVRTVVHMMESVALPGGGGVKAAIKGYRIAIKTGTAKKVGPDGRYINKYIAYTAGVAPASQPRFALVVVINDPQAGKYYGGAVSAPVFGAIMGGVLRTMNIEPDALTTGDKNEFVINQGEGTGGRS [P0AD68]", "values": [{"measurement": "total protein half-life in vivo", "setting": "[1]", "result": "2.8 ± 0.043", "unit": "h"}, {"measurement": "total protein half-life in vivo", "setting": "[2]", "result": "2.39 ± 0.032", "unit": "h"}, {"measurement": "total protein half-life in vivo", "setting": "[3]", "result": "2.53 ± 0.39", "unit": "h"}, {"measurement": "total protein half-life in vivo", "setting": "[12]", "result": "2.31 ± 0.099", "unit": "h"}, {"measurement": "total protein half-life in vivo", "setting": "[4]", "result": "2.77 ± 0.059", "unit": "h"}, {"measurement": "total protein half-life in vivo", "setting": "[5]", "result": "1.75 ± 0.11", "unit": "h"}, {"measurement": "total protein half-life in vivo", "setting": "[6]", "result": "2.35 ± 0.13", "unit": "h"}, {"measurement": "total protein half-life in vivo", "setting": "[7]", "result": "2.75 ± 0.35", "unit": "h"}, {"measurement": "total protein half-life in vivo", "setting": "[8]", "result": "2.61 ± 0.035", "unit": "h"}, {"measurement": "total protein half-life in vivo", "setting": "[9]", "result": "3.15 ± 0.18", "unit": "h"}, {"measurement": "total protein half-life in vivo", "setting": "[10]", "result": "3.311 ± 0.027", "unit": "h"}, {"measurement": "total protein half-life in vivo", "setting": "[11]", "result": "4.83 ± 0.71", "unit": "h"}]}
{"sequence": "MKAFNKLFSLVVASVLVFSLAGCGDKEESKKFSANLNGTEIAITYVYKGDKVLKQSSETKIQFASIGATTKEDAAKTLEPLSAKYKNIAGVEEKLTYTDTYAQENVTIDMEKVDFKALQGISGINVSAEDAKKGITMAQMELVMKAAGFKEVK", "values": [{"measurement": "total protein half-life in vivo", "setting": "[1]", "result": 5.1, "unit": "h"}, {"measurement": "total protein half-life in vivo", "setting": "[2]", "result": 5.39, "unit": "h"}, {"measurement": "total protein half-life in vivo", "setting": "[3]", "result": 5.31, "unit": "h"}, {"measurement": "total protein half-life in vivo", "setting": "[12]", "result": "5.76 ± 0.26", "unit": "h"}, {"measurement": "total protein half-life in vivo", "setting": "[4]", "result": "4.61 ± 0.12", "unit": "h"}, {"measurement": "total protein half-life in vivo", "setting": "[5]", "result": 2.68, "unit": "h"}, {"measurement": "total protein half-life in vivo", "setting": "[6]", "result": "4.07 ± 0.38", "unit": "h"}, {"measurement": "total protein half-life in vivo", "setting": "[7]", "result": 7.55, "unit": "h"}, {"measurement": "total protein half-life in vivo", "setting": "[8]", "result": "5.76 ± 0.11", "unit": "h"}, {"measurement": "total protein half-life in vivo", "setting": "[9]", "result": "9.71 ± 1.6", "unit": "h"}, {"measurement": "total protein half-life in vivo", "setting": "[10]", "result": 5.3, "unit": "h"}]}
